Experimental findings from publication PMC3154026 are described below.

The experiment concerns the target TamL, FAD-dependent oxidase (flavoprotein) of the tirandamycin biosynthetic gene cluster (Streptomyces sp. 307-9). Description: crystal structure.

In general, stoichiometry N refers to the number of molecules, sites or subunits per partner or assembly. “TamL, FAD-dependent oxidase (flavoprotein) of the tirandamycin biosynthetic gene cluster (enzyme)” registered a stoichiometry N of 2.
